From patent US10308973B1, “Real-time imaging method of NAPDH-dependent metabolic activity in cell and use thereof” (INDUSTRY FOUNDATION OF CHONNAM NATIONAL UNIVERSITY, priority 2018, dated 2019)

How the values were obtained:
[1] = system: mBFP-transformed animal cells; experiment: NADPH imaging of mBFP-transformed animal cells treated with NADPH dehydrogenase inhibitors; assay type: cell-based; settings: compared among the inhibitors of Table 3
Method: The mBFP-transformed animal cells were cultured and treated with NADPH dehydrogenase inhibitors shown in Table 3, respectively, and the amount of change in NADPH was measured.

[2] = system: recombinant animal cells (HeLa cell); experiment: Two-photon fluorescence imaging of mBFP-expressing animal cells after oxidant treatment; assay type: cell-based; settings: 40 μM diamide; glucose-free medium; images every second
Method: The recombinant animal cells produced in the Examples above were treated with diamide, which is an oxidant, to reduce the amount of NADPH in the cells, and the change in fluorescence was observed as follows. First, before observing the recombinant animal cells, the medium was replaced with a culture medium from which glucose was removed to prevent continuous overproduction of NADPH, and the cells were cultured for 1 hour and images thereof were observed. After treatment with 40 μM diamide, fluorescence images were taken every second using a real-time image measurement method using a two-photon microscopy.

[3] = Enzyme activity (aldehyde dehydrogenase) of purified mutant mBFP; assay type: biochemical; settings: purified protein
Method: In order to measure benzaldehyde dehydrogenase activity, a reaction solution of pH 7.5 in which 100 mM Tris, 100 mM sodium chloride, 0.05% Triton X-100, […] and added at an amount of 10 μL per well containing 90 μL of cultured cells, and reacted for 10 minutes. The change in fluorescence value was measured by the fluorescence reader to measure the amount of NADPH consumed by the activity of mBFP mutant enzyme.
In order to measure the enzyme activity of the short-chain dehydrogenase/reductase family (SDR family) of the purified mutant mBFP, a reaction solution (100 mM Tris, 100 mM sodium chloride, 0.05% Triton X-100, 0.5 mM benzaldehyde, 0.5 mM NADPH, pH 7.5) for measuring aldehyde dehydrogenase was added at an amount of 10 μL to each well to which the protein was added, and reacted for 10 minutes, and then the amount of reduced NADPH was measured using a fluorescent reader.

[4] = Benzaldehyde reductase activity of mBFP purified from transformed cells; assay type: biochemical; settings: benzaldehyde reaction solution
Method: The cultured cells were disrupted, recovered, and purified using the His-tag as follows.
The cell supernatant disrupted with phosphate buffered saline (PBS) was injected into and passed through Ni-NTA Spin Columns (Qiagen), and washed with wash buffer (PBS, 10 mM imidazole). Then, the mBFP protein was recovered with the elution buffer (PBS, 100 mM imidazole).
In order to confirm whether the mBFP protein had activity as a reductase through mutation, the reductase activity of mBFP was measured using the reaction solution for measuring the benzaldehyde reductase activity of Example 1 above.

NC(=O)c1ccc(N)nc1 [6-ANA, 6-Aminonicotinamide]
difference of fluorescence intensity due to mBFP after inhibitor treatment [1]: the largest

C[C@]12CC[C@H](O)CC1=CC[C@@H]1[C@@H]2CC[C@]2(C)C(=O)CC[C@@H]12 [DHEA, Dehydroepiandrosterone]
difference of fluorescence intensity due to mBFP after inhibitor treatment [1]: the largest

CN(C)C(=O)/N=N/C(=O)N(C)C [diamide]
fluorescence intensity after oxidant treatment [2]: rapidly decreased

B1: Wild type: wild-type metagenome-derived blue fluorescent protein, SEQ ID NO: 6, GenBank Accession No. AF485783 (protein)
chain: MQNLNGKVAFVTGGSRGIGAAIVRRLAADGADIAFTYVSASSKNVATALVQELEAKGRRARAIQADSADPAQVRQAVEQAIVQLGPVDVLVNNAGIFLAGPLGEVTLDDYERTMNINVRAPFVAIQAAQASMPDGGRIINIGSCLAERAGRAGVTLYAASKSALLGMTRGLARDLGARGITANVVHPGPIDTDMNPADGERSGELVAVLSLPHYGEVRDIAGMVAFLAGPDGRYVTGASLAVDGGFAA
modifications: BFP wild type Y157 w/o his-tag
Enzyme activity of mutant mBFP, Acetaldehyde ([3]; substrate acetaldehyde): 10.34 ± 0.24 U mg^−1 | Enzyme activity of mutant mBFP, Benzaldehyde ([3]; substrate benzaldehyde): 6.41 ± 0.34 U mg^−1 | Enzyme activity of mutant mBFP, Hexanal ([3]; substrate hexanal): 4.34 ± 0.14 U mg^−1 | Enzyme activity of mutant mBFP, Pivaldehyde ([3]; substrate pivaldehyde): 14.43 ± 0.68 U mg^−1 | reductase activity (in words) [4]: exhibited the reductase activity
